As a reminder, the Kd is the equilibrium constant for the complex coming apart. A lower Kd goes with tighter binding. As a reminder, the koff is the first-order rate constant of dissociation.

This is an account of results in US12552834 (MIT, dated 2026).

First the molecules themselves.
B1: FDDFP8 peptide (peptide)
peptide: MAGGLNDIFEAQKIEWHEDTGGSSHHHHHHGSGSGSDSEVNQEAKPEVKPEVKPETHINLKVSDGSSEIFFKIKKTTPLRRLMEAFAKRQGKEMDSLTFLYDGIEIQADQTPEDLDMEDNDIIEAHREQIGGSGSGFDDFPPPPPPPP
modifications: biotinylated (BAP tag)
notes: ABI1 truncation, tested as a SUMO fusion
B2: LPP Minimal peptide (peptide)
peptide: MAGGLNDIFEAQKIEWHEDTGGSSHHHHHHGSGSGSDSEVNQEAKPEVKPEVKPETHINLKVSDGSSEIFFKIKKTTPLRRLMEAFAKRQGKEMDSLTFLYDGIEIQADQTPEDLDMEDNDIIEAHREQIGGSGSGGDFLPPPPPPLGGGSGSGGGSGSFPPPPPL
modifications: biotinylated (BAP tag)
notes: Engineered variant, tested as a SUMO fusion
B3: ABI1-LPP fusion peptide (designed binder)
peptide: MAGGLNDIFEAQKIEWHEDTGGSSHHHHHHGSGSGSDSEVNQEAKPEVKPEVKPETHINLKVSDGSSEIFFKIKKTTPLRRLMEAFAKRQGKEMDSLTFLYDGIEIQADQTPEDLDMEDNDIIEAHREQIGGSGSGFDDFPPPPPPPPVDYEDLPSISGNFPPPPPL
modifications: biotinylated (BAP tag)
notes: Engineered peptide, tested as a SUMO fusion in BLI
B4: FP8 peptide (FPPPPPPPP) (peptide)
peptide: MAGGLNDIFEAQKIEWHEDTGGSSHHHHHHGSGSGSDSEVNQEAKPEVKPEVKPETHINLKVSDGSSEIFFKIKKTTPLRRLMEAFAKRQGKEMDSLTFLYDGIEIQADQTPEDLDMEDNDIIEAHREQIGGSGSGFPPPPPPPP
modifications: biotinylated (BAP tag)
notes: as for B1
B5: FP4S4 peptide (FPPPPSSSS) (peptide)
peptide: B4 peptide with P142S, P143S, P144S, P145S
modifications: biotinylated (BAP tag)
notes: Tested as a SUMO fusion
B6: LPP 36mer peptide (peptide)
peptide: MAGGLNDIFEAQKIEWHEDTGGSSHHHHHHGSGSGSDSEVNQEAKPEVKPEVKPETHINLKVSDGSSEIFFKIKKTTPLRRLMEAFAKRQGKEMDSLTFLYDGIEIQADQTPEDLDMEDNDIIEAHREQIGGSGSGKQPGGEGDFLPPPPPPLDDSSALPSISGNFPPPPPL
modifications: biotinylated (BAP tag)
notes: Tested as a BAP-6xHis-SUMO-peptide fusion in BLI and ITC
B7: Zyxin 36-mer peptide (peptide)
peptide: MAGGLNDIFEAQKIEWHEDTGGSSHHHHHHGSGSGSDSEVNQEAKPEVKPEVKPETHINLKVSDGSSEIFFKIKKTTPLRRLMEAFAKRQGKEMDSLTFLYDGIEIQADQTPEDLDMEDNDIIEAHREQIGGSGSGALGGAFPPPPPPIEESFPPAPLEEEIFPSPPPPPEE
modifications: biotinylated (BAP tag)
notes: Tested as a biotinylated BAP-6xHis-SUMO-peptide fusion
B8: NHSL1 36mer peptide (peptide)
peptide: MAGGLNDIFEAQKIEWHEDTGGSSHHHHHHGSGSGSDSEVNQEAKPEVKPEVKPETHINLKVSDGSSEIFFKIKKTTPLRRLMEAFAKRQGKEMDSLTFLYDGIEIQADQTPEDLDMEDNDIIEAHREQIGGSGSGADRSPFLPPPPPVTDCSQGSPLPHSPVFPPPPPEAL
modifications: biotinylated (BAP tag)
notes: as for B6
B9: PCARE 36-residue peptide (PCARE813-848) (peptide)
peptide: MAGGLNDIFEAQKIEWHEDTGGSSHHHHHHGSGSGSDSEVNQEAKPEVKPEVKPETHINLKVSDGSSEIFFKIKKTTPLRRLMEAFAKRQGKEMDSLTFLYDGIEIQADQTPEDLDMEDNDIIEAHREQIGGSGSGAAKSEELSCEMEGNLEHLPPPPMEVLMDKSFASLES
modifications: biotinylated (BAP tag)
notes: Tested in BLI as a biotinylated BAP-6xHis-SUMO-peptide fusion; also called PCARE 36-mer
B10: SUMO-ActA (ActA 36-mer peptide fused to SUMO) (peptide)
peptide: MAGGLNDIFEAQKIEWHEDTGGSSHHHHHHGSGSGSDSEVNQEAKPEVKPEVKPETHINLKVSDGSSEIFFKIKKTTPLRRLMEAFAKRQGKEMDSLTFLYDGIEIQADQTPEDLDMEDNDIIEAHREQIGGGFNAPATSEPSSFEFPPPPTEDELEIIRETASSLDS
modifications: biotinylated (BAP tag)
notes: Control peptide used in BLI and ITC; also called ActA peptide
B11: NHSL1 Duplicated peptide (peptide)
peptide: MAGGLNDIFEAQKIEWHEDTGGSSHHHHHHGSGSGSDSEVNQEAKPEVKPEVKPETHINLKVSDGSSEIFFKIKKTTPLRRLMEAFAKRQGKEMDSLTFLYDGIEIQADQTPEDLDMEDNDIIEAHREQIGGSGSGADRSPFLPPPPPVTDCSQGSPLPHSPVPVTDCSQGSPLPHSPVFPPPPPEAL
modifications: biotinylated (BAP tag)
notes: as for B2
B12: LPP FP4 2 peptide (peptide)
peptide: MAGGLNDIFEAQKIEWHEDTGGSSHHHHHHGSGSGSDSEVNQEAKPEVKPEVKPETHINLKVSDGSSEIFFKIKKTTPLRRLMEAFAKRQGKEMDSLTFLYDGIEIQADQTPEDLDMEDNDIIEAHREQIGGSGSGPPLDDSSALPSISGNFPPPPPL
modifications: biotinylated (BAP tag)
notes: Truncation of the LPP 36mer that keeps the second FP4 motif, tested as a SUMO fusion
B13: LPP Duplicated peptide (peptide)
peptide: MAGGLNDIFEAQKIEWHEDTGGSSHHHHHHGSGSGSDSEVNQEAKPEVKPEVKPETHINLKVSDGSSEIFFKIKKTTPLRRLMEAFAKRQGKEMDSLTFLYDGIEIQADQTPEDLDMEDNDIIEAHREQIGGSGSGKQPGGEGDFLPPPPPPLDDSSALPSISGNDDSSALPSISGNFPPPPPL
modifications: biotinylated (BAP tag)
notes: as for B2
B14: LPP FP4 1 peptide (peptide)
peptide: MAGGLNDIFEAQKIEWHEDTGGSSHHHHHHGSGSGSDSEVNQEAKPEVKPEVKPETHINLKVSDGSSEIFFKIKKTTPLRRLMEAFAKRQGKEMDSLTFLYDGIEIQADQTPEDLDMEDNDIIEAHREQIGGSGSGKQPGGEGDFLPPPPPPLDDSSALPSISGN
modifications: biotinylated (BAP tag)
notes: Truncation of the LPP 36mer that keeps the first FP4 motif, tested as a SUMO fusion
B15: NHSL1 FP4 2 peptide (peptide)
peptide: MAGGLNDIFEAQKIEWHEDTGGSSHHHHHHGSGSGSDSEVNQEAKPEVKPEVKPETHINLKVSDGSSEIFFKIKKTTPLRRLMEAFAKRQGKEMDSLTFLYDGIEIQADQTPEDLDMEDNDIIEAHREQIGGSGSGPVTDCSQGSPLPHSPVFPPPPPEAL
modifications: biotinylated (BAP tag)
notes: Truncation of the NHSL1 36mer that keeps the second FP4 motif, tested as a SUMO fusion
B16: Minimum General peptide (peptide)
peptide: MAGGLNDIFEAQKIEWHEDTGGSSHHHHHHGSGSGSDSEVNQEAKPEVKPEVKPETHINLKVSDGSSEIFFKIKKTTPLRRLMEAFAKRQGKEMDSLTFLYDGIEIQADQTPEDLDMEDNDIIEAHREQIGGSGSGDFLPPPPGGGGGGSGSGGGSGSFPPPPGG
modifications: biotinylated (BAP tag)
notes: Engineered peptide, tested as a SUMO fusion
B17: NHSL1 FP4 1 peptide (peptide)
peptide: MAGGLNDIFEAQKIEWHEDTGGSSHHHHHHGSGSGSDSEVNQEAKPEVKPEVKPETHINLKVSDGSSEIFFKIKKTTPLRRLMEAFAKRQGKEMDSLTFLYDGIEIQADQTPEDLDMEDNDIIEAHREQIGGSGSGADRSPFLPPPPPVTDCSQGSPLPHSPV
modifications: biotinylated (BAP tag)
notes: Truncation of the NHSL1 36mer that keeps the first FP4 motif, tested as a SUMO fusion
B18: ABI1 36mer peptide (peptide)
peptide: MAGGLNDIFEAQKIEWHEDTGGSSHHHHHHGSGSGSDSEVNQEAKPEVKPEVKPETHINLKVSDGSSEIFFKIKKTTPLRRLMEAFAKRQGKEMDSLTFLYDGIEIQADQTPEDLDMEDNDIIEAHREQIGGSGSGFDDFPPPPPPPPVDYEDEEAAVVQYNDPYADGDPAW
modifications: biotinylated (BAP tag)
B19: ABI1 a peptide (peptide)
peptide: MAGGLNDIFEAQKIEWHEDTGGSSHHHHHHGSGSGSDSEVNQEAKPEVKPEVKPETHINLKVSDGSSEIFFKIKKTTPLRRLMEAFAKRQGKEMDSLTFLYDGIEIQADQTPEDLDMEDNDIIEAHREQIGGSGSGFDDFPPPPPPPPVDYED
modifications: biotinylated (BAP tag)
notes: as for B1

Changes are numbered by the printed parent chain.

T1 sequence (Q03173 other isoform, or with tags, fused parts or gaps limits assumed): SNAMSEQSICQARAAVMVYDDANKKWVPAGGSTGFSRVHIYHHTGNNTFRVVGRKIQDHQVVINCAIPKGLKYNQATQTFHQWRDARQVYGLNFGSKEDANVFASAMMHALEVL

The first test concerns the target T1, ENAH EVH1 domain (monomeric, wild type) (human, UniProt Q03173 1-111 (mouse entry)).
T1 construct: ENAH residue numbers in the text count from the Met at position 25 of this entry; also called ENAH EVH1 WT; Mena EVH1 WT
In words: BLI. A general note: Biolayer interferometry detects binding as a change in optical thickness at a sensor tip.
Description: (§1) All BLI experiments were performed with 2 replicates on an Octet Red96 instrument (ForteBio). […] The loaded tips were immersed in a solution of ENAH EVH1 domain at a relevant dilution series in BLI buffer at an orbital shake speed of 1000 rpm and run until the binding signal plateaued. ENAH-bound tips were subsequently placed into BLI buffer only for dissociation and run until the binding signal plateaued. K_D values were obtained through steady state analysis. […] The association phases were then fit to a one-phase binding model in Prism and the equilibrium steady-state binding signal values from that fit were plotted against ENAH concentration and fit to a single-site specific binding model in Prism to obtain dissociation constants. Errors reported are the standard deviation of two replicates.
Consider B1, for which the “fold decrease in affinity on truncation of the flank” value turned out to be 2.5 fold.
As for B2, the “fold reduction in affinity relative to the LPP 36-mer” value is about 4 fold.
Molecule B3 came in with a Kd of 0.76 µM.
Consider B4, for which the “fold decrease in affinity on truncation of the flank” value was found to be 3 fold.
Consider B5, for which the “fold reduction in affinity against …” value is about 4 fold.

A further test concerns the target T1, ENAH EVH1 domain (monomeric, wild type). In words: BLI, steady state; SUMO-peptide immobilised, EVH1 monomer in solution.
Description: as §1
In turn, B6 yielded a Kd of 4.03 µM.
Still for that read-out and setting: in the case of B7 it was 4.79 µM; in that of B8, 8.56 µM.
In turn, B9 displayed a dissociation constant (Kd) of 0.192 µM.
On the same count and under the same terms, in the case of B10 it was 5.21 µM.

A further test deals with T2, ENAH EVH1 domain with Arg47 mutated to Ala (human, UniProt Q03173 1-111 (mouse entry)).
T2 construct: also called ENAH R47A; ENAH EVH1 R47A
T2 sequence (Q03173 other isoform, or with tags, fused parts or gaps limits assumed, stated change not applied): as the sequence (Q03173 other isoform, or with tags, fused parts or gaps limits assumed) above, with R50A counted along it
The description is as above.
Description: as §1
On to B11, for which the Kd came out at 70 µM.
On the same count and under the same terms, the same measure for B12: 75.2 µM; for B13: 54.2 µM.
On the same count and under the same terms, in the case of B14 it was 61.3 µM.
The same measure, in the same setting: the same measure for B15: 51 µM; for B16: 86.9 µM; for B6: 61.9 µM.
B2 registered a Kd of 124 µM.
Still for that read-out and setting: in the case of B17 it was 99.1 µM; in that of B8, 55.4 µM.

The target of the next test is T1, ENAH EVH1 domain (monomeric, wild type). The test is described as above. This is another data set of the same source.
Description: as §1
B11 showed an equilibrium dissociation constant (Kd) of 18.4 µM.
The same measure, in the same setting: the same measure for B12: 28.3 µM; for B13: 6.66 µM; for B14: 12.4 µM.
B15 registered a dissociation constant (Kd) of 24.4 µM.
For the molecule B16, the affinity, expressed as Kd, was 92.6 µM.
The same measure, in the same setting: in the case of B6 it was 4.03 µM; in that of B2, 15.8 µM.
With B17, the Kd came to 48.7 µM.
Still for that read-out and setting: in the case of B8 it was 8.56 µM.

For another test the target is unchanged. In words: BLI, steady state; SUMO-peptide immobilised, EVH1 monomer in solution; Table 2 (MassTitr hit validation), not the Table 3 truncation series.
Description: as §1
B18 yielded a dissociation constant Kd of 2.44 µM.

A further test has the same target. In words: ITC. For orientation: In ITC the heat of successive injections is recorded.
Description: (§2) ITC experiments were performed with two replicates using a VP-ITC microcalorimeter (MicroCal LLC). To prepare samples for ITC, 2.5 mL of 100 µM ENAH EVH1 domain and 1 mL of 800 µM-1.2 mM of SUMO-peptide fusions were dialyzed against 2 µL of ITC Buffer (20 mM Hepes pH 7.6, 150 mM NaCl, 1 mM TCEP) at 4° C. overnight. The concentrations of proteins were remeasured after dialysis on the day of experiment. SUMO-peptide was titrated into ENAH EVH1 domain at 25° C. Data analysis and curve fitting were performed with the Origin 7.0 software (OriginLab).
Consider B6, for which the “-TΔS” value is -0.504 kcal/mol, the ΔG was -6.94 kcal/mol and the ΔH was -6.44 kcal/mol.
Taken in the same sequence, the figures for B8 were -0.28 kcal/mol, -6.83 kcal/mol and -6.55 kcal/mol.
Taken in the same sequence, the figures for B10 were -5.21 kcal/mol, -6.99 kcal/mol and -1.78 kcal/mol.

For a further test the target is unchanged. In words: BLI dissociation phase, immobilised SUMO-peptide, ENAH EVH1 domain in solution.
As for B6, the off-rate constant (koff) stood at 1.8 s⁻¹.
Same read-out and setting: the same measure for B3: 0.33 s⁻¹.

For the next test the target is unchanged. In words: ITC, SUMO-peptide titrated into ENAH EVH1 domain at 25 °C.
Description: as §2
Molecule B6 registered a Kd of 8.13 µM.
The molecule B8 showed a Kd of 9.8 µM.
Still for that read-out and setting: in the case of B10 it was 7.41 µM.

The target of the next test is T2, ENAH EVH1 domain with Arg47 mutated to …. Briefly: BLI, steady state; SUMO-peptide immobilised, EVH1 monomer in solution. The source holds these as a separate data set.
Description: as §1
In the case of B6, the affinity, expressed as Kd, was 61.9 µM.
In turn, B7 had a Kd of 54.5 µM.
The same measure, in the same setting: in the case of B8 it was 55.4 µM; in that of B9, 0.331 µM; in that of B10, 8.02 µM.

The target of a further test is T1, ENAH EVH1 domain (monomeric, wild type). Described as above. This is another data set of the same source.
Description: as §1
As to B6, the Kd is 4.03 µM.
In turn, B7 gave a Kd of 4.79 µM.
In turn, B8 had an equilibrium dissociation constant (Kd) of 8.56 µM.
The same measure, in the same setting: the same measure for B9: 0.192 µM; for B10: 5.21 µM.

The next test shares this target. Described as above. The source holds these as a separate data set.
Description: as §1
B18 had a dissociation constant (Kd) of 4.01 µM.
In turn, B1 displayed a Kd of 10.1 µM.
On the same count and under the same terms, in the case of B19 it was 5.21 µM; in that of B4, 28.5 µM; in that of B5, 114 µM.
